# Assay results as given in patent US20250277045A1 (KEYMED BIOSCIENCES, published 2025).
# T1: human BCMA on cells (CHO-hBCMA clone 2C2; NCI-H929; RPMI-8226) (human, UniProt Q02223 1-184)
# T1 sequence (looked up): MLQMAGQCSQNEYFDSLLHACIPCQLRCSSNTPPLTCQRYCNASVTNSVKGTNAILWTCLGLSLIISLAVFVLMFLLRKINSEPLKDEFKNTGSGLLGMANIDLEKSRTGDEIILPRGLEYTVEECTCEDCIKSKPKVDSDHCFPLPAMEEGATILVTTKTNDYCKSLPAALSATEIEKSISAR
# Tests used:
# [1] = biological target: T1, human BCMA on cells (CHO-hBCMA clone …); assay: cell-based or functional assay
# [2] = biological target: human CD3 on T cells (Jurkat cells; human peripheral blood CD4+ and CD8+ T cells) (human, UniProt P07766 23-207); assay: cell-based or functional assay
# Wherever Upregulation of CD25 (%), CD4+T is given: test concentration or dose not given here.
# Wherever Upregulation of CD25 (%), CD8+T is given: test concentration or dose not given here.
# Wherever Upregulation of CD69 (%), CD4+T is given: test concentration or dose not given here.
# Wherever Upregulation of CD69 (%), CD8+T is given: test concentration or dose not given here.
# Sequence of human CD3 on T cells (Jurkat cells; human peripheral blood CD4+ and CD8+ T cells) (P07766 23-207): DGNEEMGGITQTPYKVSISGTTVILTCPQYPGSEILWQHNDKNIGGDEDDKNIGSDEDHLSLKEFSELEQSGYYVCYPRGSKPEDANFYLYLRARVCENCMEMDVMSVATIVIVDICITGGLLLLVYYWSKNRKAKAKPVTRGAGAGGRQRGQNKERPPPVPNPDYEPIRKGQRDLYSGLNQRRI
Binder,"Killing EC50 (TDCC, LDH release; PBMC + RPMI-8226) [1] [nM]","Upregulation of CD25 (%), CD4+T [2] [%]","Upregulation of CD25 (%), CD8+T [2] [%]","Upregulation of CD25 EC50, CD4+T [2] [nM]","Upregulation of CD25 EC50, CD8+T [2] [nM]","Upregulation of CD69 (%), CD4+T [2] [%]","Upregulation of CD69 (%), CD8+T [2] [%]","Upregulation of CD69 EC50, CD4+T [2] [nM]","Upregulation of CD69 EC50, CD8+T [2] [nM]"
"h38E2-CD3 (bispecific antibody, V domains shown) VH 1: QVQLVQSGAEVKKPGSSVKVSCKASGYTFTNYWIGWVREAPGQGLEWMGDIYPGSGDTNYNGKFQGRVTLTADISSNTAYMELSSLRSEDTAVYYCARSYYRNDAASFAYWGQGTLVTVSS VL 1: DIQMTQSPSSLSASVGDRVTITCQASQDVDTAVAWYQKKPGKAPKLLIYWTSTRHTGVPSRFSGSGSGTDFTFTISSLQPEDIATYFCQQFSSYPLTFGQGTKVEIK VH 2: EVQLVESGGGLVQPGGSLRLSCAASGFTFNTYAMNWVRKAPGKGLEWVGRIRSKYNNYATYYADSVKDRFTISRDDSKNSLYLQMNSLKTEDTAVYYCVRHGNFGNSYVSWFAYWGQGTLVTVSS VL 2: QAVVTQEPSLTVSPGGTVTLTCRSSTGAVTTSNYANWVQEKPGQAPRGLIGGTNKRAPWTPARFSGSLLGGKAALTITGAQAEDEAEYYCVLWYSNLWVFGGGTKLTVL",13.6,29,38,3.65,3.65,55,69,7.4,2.32
"h15H10-CD3 (bispecific antibody, V domains shown) VH 1: QVQLVQSGSELKKPGASVKVSCKASGYTFTNFGMNWVREAPGQGLEWMGWINTYTGDLIYGDDFKGRFAFSLDTSASTAYLQISSLKAEDTAVYFCARGEIYYGYDVGFAYWGQGTLVTVSS VL 1: DIVLTQSPASLAVSPGQRATITCRASKSVSTSGYSYMHWYQKKPGQPPKLLIYLASNLESGVPARFSGSGSGTDFTLTINPVEANDTANYYCQHSRELPWTFGQGTKVEIK VH 2: EVQLVESGGGLVQPGGSLRLSCAASGFTFNTYAMNWVRKAPGKGLEWVGRIRSKYNNYATYYADSVKDRFTISRDDSKNSLYLQMNSLKTEDTAVYYCVRHGNFGNSYVSWFAYWGQGTLVTVSS VL 2: QAVVTQEPSLTVSPGGTVTLTCRSSTGAVTTSNYANWVQEKPGQAPRGLIGGTNKRAPWTPARFSGSLLGGKAALTITGAQAEDEAEYYCVLWYSNLWVFGGGTKLTVL",1.83,36,41,3.85,2.64,58,62,3.39,0.94
"h40C6-CD3 (bispecific antibody, V domains shown) VH 1: QVQLVQSGSELKKPGASVKVSCKASGYIFTNFGMNWVREAPGQGLEWMGWINTYTGEQIYADDFKGRFAFSLDTSASTAYLQISSLKAEDTAVYFCARGEIYYGYDVGFVYWGQGTLVTVSS VL 1: DIVLTQSPASLAVSPGQRATITCRASRSVTTSGYSYIHWYQKKPGQPPKLLIYLASDLEAGVPARFSGSGSGTDFTLTINPVEANDTANYYCQHSRELPWTFGQGTKVEIK VH 2: EVQLVESGGGLVQPGGSLRLSCAASGFTFNTYAMNWVRKAPGKGLEWVGRIRSKYNNYATYYADSVKDRFTISRDDSKNSLYLQMNSLKTEDTAVYYCVRHGNFGNSYVSWFAYWGQGTLVTVSS VL 2: QAVVTQEPSLTVSPGGTVTLTCRSSTGAVTTSNYANWVQEKPGQAPRGLIGGTNKRAPWTPARFSGSLLGGKAALTITGAQAEDEAEYYCVLWYSNLWVFGGGTKLTVL",1.12,25,28,0.45,0.49,37,44,0.63,0.21
"h38D9-CD3 (bispecific antibody, V domains shown) VH 1: QVQLVQSGSELKKPGASVKVSCKASGYIFTNFGMNWVREAPGQGLEWMGWINTYTGEQIYADDFKGRFAFSLDTSASTAYLQISSLKAEDTAVYFCARGEIYYGYDVGFVYWGQGTLVTVSS VL 1: DIVLTQSPASLAVSPGQRATITCRASKSVSTSGYSYMHWYQKKPGQPPKLLIYLGSDLESGVPARFSGSGSGTDFTLTINPVEANDTANYYCQHSRELPWTFGQGTKVEIK VH 2: EVQLVESGGGLVQPGGSLRLSCAASGFTFNTYAMNWVRKAPGKGLEWVGRIRSKYNNYATYYADSVKDRFTISRDDSKNSLYLQMNSLKTEDTAVYYCVRHGNFGNSYVSWFAYWGQGTLVTVSS VL 2: QAVVTQEPSLTVSPGGTVTLTCRSSTGAVTTSNYANWVQEKPGQAPRGLIGGTNKRAPWTPARFSGSLLGGKAALTITGAQAEDEAEYYCVLWYSNLWVFGGGTKLTVL",1.04,29,35,0.77,1.75,57,52,0.52,0.37
"h34G2-CD3 (bispecific antibody, V domains shown) VH 1: QVQLVQSGSELKKPGASVKVSCKASGYTFTNYGMNWVREAPGQGLEWMGWINTYTGERIYADDFKGRFAFSLDTSASTAYLQISSLKAEDTAVYFCARGEIYYGYDVGFVYWGQGTLVTVSS VL 1: DIVLTQSPASLAVSPGQRATITCRASKSVSTSGYSYMHWYQKKPGQPPKLLIYLASNLESGVPARFSGSGSGTDFTLTINPVEANDTANYYCQHSRELPWTFGQGTKVEIK VH 2: EVQLVESGGGLVQPGGSLRLSCAASGFTFNTYAMNWVRKAPGKGLEWVGRIRSKYNNYATYYADSVKDRFTISRDDSKNSLYLQMNSLKTEDTAVYYCVRHGNFGNSYVSWFAYWGQGTLVTVSS VL 2: QAVVTQEPSLTVSPGGTVTLTCRSSTGAVTTSNYANWVQEKPGQAPRGLIGGTNKRAPWTPARFSGSLLGGKAALTITGAQAEDEAEYYCVLWYSNLWVFGGGTKLTVL",1.02,27,33,1.18,1.28,42,55,0.68,0.57
"h23F8-CD3 (bispecific antibody, V domains shown) VH 1: QVQLVQSGSELKKPGASVKVSCKASGYTFTNFGMNWVREAPGQGLEWMGWINTYTGDQIYADDFKGRFAFSLDTSASTAYLQISSLKAEDTAVYFCARGEIYYGYDVGFVYWGQGTLVTVSS VL 1: DIVLTQSPASLAVSPGQRATITCRASKSVSTSGYSYMHWYQKKPGQPPKLLIYLASNLESGVPARFSGSGSGTDFTLTINPVEANDTANYYCQHSRELPWTFGQGTKVEIK VH 2: EVQLVESGGGLVQPGGSLRLSCAASGFTFNTYAMNWVRKAPGKGLEWVGRIRSKYNNYATYYADSVKDRFTISRDDSKNSLYLQMNSLKTEDTAVYYCVRHGNFGNSYVSWFAYWGQGTLVTVSS VL 2: QAVVTQEPSLTVSPGGTVTLTCRSSTGAVTTSNYANWVQEKPGQAPRGLIGGTNKRAPWTPARFSGSLLGGKAALTITGAQAEDEAEYYCVLWYSNLWVFGGGTKLTVL",0.81,25,34,0.57,0.79,41,59,0.44,0.49
"h29A11-CD3 (bispecific antibody, V domains shown) VH 1: QVQLVQSGSELKKPGASVKVSCKASGYIFTNFGMNWVREAPGQGLEWMGWINTYTGEQIYADDFKGRFAFSLDTSASTAYLQISSLKAEDTAVYFCARGEIYYGYDVGFVYWGQGTLVTVSS VL 1: DIVLTQSPASLAVSPGQRATITCRASKSVSTSGYSYMHWYQKKPGQPPKLLIYLASNLESGVPARFSGSGSGTDFTLTINPVEANDTANYYCQHSRELPWTFGQGTKVEIK VH 2: EVQLVESGGGLVQPGGSLRLSCAASGFTFNTYAMNWVRKAPGKGLEWVGRIRSKYNNYATYYADSVKDRFTISRDDSKNSLYLQMNSLKTEDTAVYYCVRHGNFGNSYVSWFAYWGQGTLVTVSS VL 2: QAVVTQEPSLTVSPGGTVTLTCRSSTGAVTTSNYANWVQEKPGQAPRGLIGGTNKRAPWTPARFSGSLLGGKAALTITGAQAEDEAEYYCVLWYSNLWVFGGGTKLTVL",0.69,33,36,0.45,3.85,47,58,0.37,3.39
